Assay results: US11491212

Factor X, P00742, sequence (P00742 whole entry, looked up): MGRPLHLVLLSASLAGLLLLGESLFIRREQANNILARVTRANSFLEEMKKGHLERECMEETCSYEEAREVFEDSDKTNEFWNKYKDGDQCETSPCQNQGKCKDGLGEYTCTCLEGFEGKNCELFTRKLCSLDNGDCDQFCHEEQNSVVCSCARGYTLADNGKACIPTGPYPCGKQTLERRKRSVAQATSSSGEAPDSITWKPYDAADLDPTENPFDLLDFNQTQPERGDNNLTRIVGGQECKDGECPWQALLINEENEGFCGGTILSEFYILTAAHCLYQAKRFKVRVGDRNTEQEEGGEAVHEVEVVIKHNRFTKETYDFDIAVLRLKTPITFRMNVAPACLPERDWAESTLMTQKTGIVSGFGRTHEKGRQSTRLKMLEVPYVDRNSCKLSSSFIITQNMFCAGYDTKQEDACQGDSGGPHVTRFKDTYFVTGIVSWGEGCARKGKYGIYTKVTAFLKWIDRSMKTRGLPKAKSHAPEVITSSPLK
Factor X (FX), P00742, sequence (P00742 whole entry, looked up): as above

B1: FIXa Y155F/K247N/N249S/R338E/T343R (protein)
chain 1: not shown
chain 2: not shown
B1 was tested, and the “% of WT kcat/KM” value (Factor X, P00742) was 1579% and the kcat/KM (Factor X, P00742) was 7.3e+08 M⁻¹ s⁻¹.

B2: FIXa Y155F/K247N/N249S/R318Y/R338E/T343R/E410N (protein)
chain 1: not shown
chain 2: not shown
For B2, the “% of WT kcat/KM” value (Factor X, P00742) was 1091% and the kcat/KM (Factor X, P00742) was 5e+08 M⁻¹ s⁻¹.

B3: FIXa Y155F/K247N/N249S/R338E/R403E (protein)
chain 1: not shown
chain 2: not shown
B3 was tested, and the “% of WT kcat/KM” value (Factor X, P00742) was 299% and the kcat/KM (Factor X, P00742) was 1.4e+08 M⁻¹ s⁻¹.

B4: FIXa K247N/N249S/T343R/R403E/E410N (protein)
chain 1: not shown
chain 2: not shown
B4 was tested, and the kcat (s^-1), activation of FX by FIXa in the Xase complex (Factor X (FX), P00742) was 8 s⁻¹, the “% of WT kcat/KM” value (Factor X, P00742) was 285% and the kcat/KM (Factor X, P00742) was 1.3e+08 M⁻¹ s⁻¹.

B5: FIXa Y155F/R318Y/R338E/T343R (protein)
chain 1: not shown
chain 2: not shown
With B5 the kcat (s^-1), activation of FX by FIXa in the Xase complex (Factor X (FX), P00742) was 7.9 s⁻¹, the “% of WT kcat/KM” value (Factor X, P00742) was 771% and the kcat/KM (Factor X, P00742) was 3.6e+08 M⁻¹ s⁻¹.
